Laboratory results from patent US20120251547A1 (Amgen, published 2012).
Like-named read-outs stand apart in the source and are kept apart here. One block for each binder: values may come before it.

How the values were obtained:
[1] = biological target: T1, cynomolgus IL-17RA, on cells (cynomolgus); assay: FACS competition: non-clonal supernatant inhibiting biotin-huIL-17A (competitor) binding to cyno IL-17RA+ CHO cells
T1 construct: whole, on cells; also called CHO-cynoIL-17RA; cyno IL-17RA+ CHO cells

[2] = biological target: T2, chimera J; assay: Bio-Plex titration on His-captured chimera;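 further: binding of anti-IL-17RA antibodies (4-fold titration across about 5 logs, 1 h) to His-captured IL-17RA chimeras on multiplexed beads, MFI read as percent of maximal wild-type human IL-17RA signal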
T2 construct: human IL-17RA extracellular domain with mouse Domains D and E; column head D+E; also called Construct J

[3] = biological target: T3, chimera D; assay: Bio-Plex titration on His-captured chimera;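 further: binding of anti-IL-17RA antibodies (4-fold titration across about 5 logs, 1 h) to His-captured IL-17RA chimeras on multiplexed beads, MFI read as percent of maximal wild-type human IL-17RA signal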
T3 construct: human IL-17RA extracellular domain with mouse Domain D; column head 176-197; also called Construct D
T3 IL-17RA extracellular domain with FLAG-polyHis tag: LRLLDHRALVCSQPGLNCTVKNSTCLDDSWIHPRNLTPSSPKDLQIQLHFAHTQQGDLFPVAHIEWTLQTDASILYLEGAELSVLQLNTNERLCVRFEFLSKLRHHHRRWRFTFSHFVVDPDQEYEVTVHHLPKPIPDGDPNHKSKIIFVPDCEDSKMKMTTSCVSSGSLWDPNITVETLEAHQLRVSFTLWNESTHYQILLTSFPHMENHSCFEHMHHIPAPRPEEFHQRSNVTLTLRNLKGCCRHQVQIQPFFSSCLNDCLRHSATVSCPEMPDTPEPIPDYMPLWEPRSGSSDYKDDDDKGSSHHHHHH

[4] = biological target: T4, human IL-17RA, full-length, on cells (human, UniProt Q96F46 33-866); assay: cell-based or functional assay
[5] = biological target: T4, human IL-17RA, full-length, on cells; assay: cell-based or functional assay; remark: listed apart in the source
[6] = biological target: human IL-17RA (form used in the low resolution BIAcore not stated) (human, UniProt Q96F46 33-320, limits assumed); assay: low resolution BIAcore, subcloned hybridoma
[7] = biological target: T5, huIL-17RA-FLAG-polyHis (human, UniProt Q96F46 33-320); assay: binning; IL-17RA held by bead mAb A
T5 construct: also called IL-17RA-FLAG-pHis; wild-type IL-17RA

[8] = biological target: T5, huIL-17RA-FLAG-polyHis; assay: binning; IL-17RA held by bead mAb B
[9] = biological target: T5, huIL-17RA-FLAG-polyHis; assay: binning; IL-17RA held by bead mAb C
[10] = biological target: T5, huIL-17RA-FLAG-polyHis; assay: binning; IL-17RA held by bead mAb D
[11] = biological target: T5, huIL-17RA-FLAG-polyHis; assay: binning; IL-17RA held by bead mAb E
[12] = biological target: T5, huIL-17RA-FLAG-polyHis; assay: binning; IL-17RA held by bead mAb F
[13] = biological target: T5, huIL-17RA-FLAG-polyHis; assay: binning; IL-17RA held by bead mAb H
[14] = biological target: T5, huIL-17RA-FLAG-polyHis; assay: binning; IL-17RA held by bead mAb M
[15] = biological target: T5, huIL-17RA-FLAG-polyHis; assay: binning; IL-17RA held by bead mAb P
[16] = biological target: T5, huIL-17RA-FLAG-polyHis; assay: binning; IL-17RA held by bead mAb G
[17] = biological target: T5, huIL-17RA-FLAG-polyHis; assay: binning; IL-17RA held by bead mAb I
[18] = biological target: T5, huIL-17RA-FLAG-polyHis; assay: binning; IL-17RA held by bead mAb J
[19] = biological target: T5, huIL-17RA-FLAG-polyHis; assay: binning; IL-17RA held by bead mAb K
[20] = biological target: T5, huIL-17RA-FLAG-polyHis; assay: binning; IL-17RA held by bead mAb L
[21] = biological target: T5, huIL-17RA-FLAG-polyHis; assay: binning; IL-17RA held by bead mAb N
[22] = biological target: T5, huIL-17RA-FLAG-polyHis; assay: binning; IL-17RA held by bead mAb O
[23] = biological target: T5, huIL-17RA-FLAG-polyHis; assay: binning; IL-17RA held by bead mAb Q
[24] = biological target: T5, huIL-17RA-FLAG-polyHis; assay: binning; IL-17RA held by bead mAb R
[25] = biological target: T1, cynomolgus IL-17RA, on cells; assay: FACS competition: non-clonal supernatant inhibiting biotin-huIL-17A (competitor) binding to cyno IL-17RA+ CHO cells; remark: listed apart in the source
[26] = biological target: T1, cynomolgus IL-17RA, on cells; assay: cell-based or functional assay

MFI [1]: 6
B1: AMH15/AML15 (antibody, IgG2, V domains shown)
VH: QVQLVESGGGVVQPGRSLRLSCAASGFTFSSYGMQWVRQAPGKGLEWVAVIWYDGNKKYYADSVKGRFTISRDNSKNTLYLQMNSLRAEDTAVYYCARGRVRDYYYGMDVWGQGTTVTVSS
VL: EIVMTQSPATLSVSPGERVTLSCRASQSVSSNLAWFQQKPGQAPRPLIYDASTRAAGIPARFSGSGSGTDFTLTISSLQSEDFAVYYCQQYDNWPLTFGGGTKVEIK
notes: human mAb from IgG2 XenoMouse mice; tested only as part of a non-clonal hybridoma supernatant; also called AM-15

EC50 [2]: 0.234 nM | EC50 [3]: 0.145 nM
B2: AMH26/AML26 (antibody, IgG2, V domains shown)
VH: QVQLVESGGGLVKPGGSLRLSCAASGFTFSDYYMSWIRQAPGKGLEWVSYISSSGSTIYYADSVKGRFTISRDNAKNSLYLQMNSLRAEDTAVYYCARDRTYYFGSGSYEGMDVWGQGTTVTVSS
VL: EILMTQSPATLSVSPGERATLSCRASQSVYSNLAWYQQKPGQAPRLLISGASTRATGIPARFSGSGSGTEFTLTISSLQSEDFAVYYCQQYYNWPWTFGQGTKVEIK
notes: human mAb from IgG2 XenoMouse mice; also called AM-26; antibody P

% inhibition of IL-6 Production, IL-17A/HFF bioassay, non-clonal supernatant 1:4 [4]: 86% | % inhibition of IL-6 Production, IL-17A/HFF bioassay, non-clonal supernatant 1:32 [4]: 90% | % inhibition of IL-6 Production, IL-17A/HFF bioassay, non-clonal supernatant 1:128 [4]: 71% | IL-17A/HFF bioassay IC50, subclone 24 [5]: 1.6 nM | IL-17A/HFF bioassay IC50, subclone 25 [5]: 2.3 nM | IL-17A/HFF bioassay IC50, subclone 26 [5]: 1.4 nM | Kd [6]: 6.2 nM | normalized MFI [7]: 3000 | normalized MFI [8]: 630 | normalized MFI [9]: 4510 | normalized MFI [10]: 1370 | normalized MFI [11]: 1260 | normalized MFI [12]: 2220 | normalized MFI [13]: 120 | normalized MFI [14]: 73 | normalized MFI [15]: 2540 | normalized MFI [16]: 4490 | normalized MFI [17]: 10 | normalized MFI [18]: 59 | normalized MFI [19]: -111 | normalized MFI [20]: 18 | normalized MFI [21]: 83 | normalized MFI [22]: 139 | normalized MFI [23]: 135 | normalized MFI [24]: 76 | MFI [25]: 6
B3: AMH16/AML16 (antibody, IgG2, V domains shown)
VH: QVQLVQSGAEVKKPGASVKVSCKASGYTFTSYGISWVRQAPGQGLEWMGWISAYNGNTKYAQKLQGRVTMTTDTSTSTVYMELRSLRSDDTAVYYCARKQLVFDYWGQGTLVTVSS
VL: EIVMTQSPATLSVSPGERATLSCRASQSISTSLAWYQQKPGQAPRLLIYGTSTRATGIPARFSGSGSGTEFTLTISSLQSEDFAVYFCQQYDIWPLTFGGGTKVEIK
notes: human mAb from IgG2 XenoMouse mice; also called AM-16; antibody O

cynomolgous IL-17A-induced IL-6 production from JTC-12 cells, IC50 [26]: ~1.2 nM | MFI [1]: 10
B4: AMH14/AML14 (antibody, V domains shown)
VH: QVQLVQSGAEVKKPGASVKVSCKASGYTFTRYGISWVRQAPGQGLEWMGWISTYSGNTNYAQKLQGRVTMTTDTSTSTAYMELRSLRSDDTAVYYCARRQLYFDYWGQGTLVTVSS
VL: EIVMTQSPATLSVSPGERATLSCRASQSVSSNLAWFQQKPGQAPRPLIYDASTRATGVPARFSGSGSGTDFTLTISSLQSEDFAVYYCQQYDNWPLTFGGGTKVEIK
notes: human mAb from IgG2 XenoMouse mice; also called AM-14; antibody K
